In US20150010566A1 one finds IC50, in vitro virus neutralization on MDCK-SIAT cells and IC50, in vitro virus neutralization on MDCK cells data, which are given here for 4 molecules.

B1: AT10-004 (antibody, V domains shown)
VH: QVQLVQSGAEVRKPGASVKVSCKASGYTFTRHGISWVRQAPGQGLEWMGWISAYTGDTDYAQKFQGRVTMTTDTSTNTAYMELRSLRSDDAAVYYCARLRLQGEVVVPPSQSNWFDPWGQGTLVTVSS
VL: EIVLTQSPATLSLYPGERATLSCRASQSVSRYLAWYQQKPGQAPRLLIYDASNRATGIPARFSGSGSGTDFTLTISSLEPEDFAVYYCQQRSNWLKITFGQGTRLEIKG
B2: AT10-002 (antibody, V domains shown)
VH: QLQLQESGPRLVKPSETLSLTCSVSGVSISSSNYYWGWIRQPPGKGLEWIGTIYHSGSTYYNPSLKSRLIISVDTSKNQFYLQLTSLTAADSAVYYCATGGGFGWSQTYFGYWGQGTLVTASS
VL: QSALTQPASVSGSPGQSITISCTGTSSDVGAYNYVSWYQHHPGKAPKLMIYDVTYRPSGVSTRFSGSKSGNTASLTISGLQAEDEADYYCSSQSRSSTLVIFGGGTKLTVLG
B3: AT10-003 (antibody, V domains shown)
VH: QVHLVQSGAEVRKPGASVKVSCKVSGYTLNELSIHWLRQAPGRGLEWMGSFDPEDGETIYAQKFQGRVTMTGDTSTDTAYLELTSLRSEDTALYYCARGWGAVTSPFDFWGQGTLVTVSS
VL: DIVMTQSPLSLPVTPGEPASISCRSSQSLLHSNGHIYFDWYLQKPGQSPQLLIYLVSKRASGVPDRFSGSGSGTDFTLKISRVEAEDVGVYYCMQALETPFTFGPGTKVHIKR
B4: AT10-001 (antibody, V domains shown)
VH: EVQLLESGGGLVQPGGSLRLSCAASGFSFSTYAMSWVRQAPGKGLEWVSGISGSGESTYYADSVKGRFTVSRDNSKNTLYLQMNSLRAEDTAVYYCAKQGDHIAWLLRGINFDYWGQGVLVTVSS
VL: EIVLTQSPGTLSLSPGERATLSCRASQSVSSSYLAWYQQKPGQAPRLLIYGASTRATGIPDRFSGRGSGTDFTLTISSLEPEDFAVYYCQNYGSPFLFTFGPGTKVDIKR

The target of the first test is HA of Influenza H3N2 (A/Netherlands/177/2008), on infected MDCK-SIAT cells or on virus (Influenza A virus H3N2 A/Netherlands/177/2008). Kind of test: cell-based or functional assay.
Regarding B1, the IC50, in vitro virus neutralization on MDCK-SIAT cells was 0.17 µg/mL.
The same measure, in the same setting: next, B2: 0.18 µg/mL; B3: > 50 µg/mL; B4: 0.64 µg/mL.

In the next test the target is HA of Influenza H1N1 (A/Hawaii/31/2007), on infected MDCK-SIAT cells or on virus (Influenza A virus H1N1 A/Hawaii/31/2007). Put plainly: cell-based or functional assay.
Regarding B1, the IC50, in vitro virus neutralization on MDCK-SIAT cells was > 50 µg/mL.
For the molecule B2, the IC50, in vitro virus neutralization on MDCK-SIAT cells is > 15 µg/mL.
On the same count and under the same terms, with B3 the figure was > 15 µg/mL.

A further test concerns the target HA of H5N1 A/turkey/Turkey/05 virus (Influenza A virus H5N1 A/turkey/Turkey/05). Kind of test: cell-based or functional assay.
For the molecule B1, the IC50, in vitro virus neutralization on MDCK cells is > 15 µg/mL.

In the next test the target is HA of H3N2 HKX-31 virus (Influenza A virus H3N2 HKX-31). Kind of test: cell-based or functional assay.
Turning to B1, the IC50, in vitro virus neutralization on MDCK-SIAT cells was found to be 0.017 µg/mL.

The target of a further test is HA of Influenza H3N2 (A/Swine/St. Oedenrode/1996), on infected MDCK cells or on virus (Influenza A virus H3N2 A/Swine/St. Oedenrode/1996 (host Swine)). Kind of test: cell-based or functional assay.
B1 yielded an IC50, in vitro virus neutralization on MDCK cells of 2.3 µg/mL.
Still for that read-out and setting: next, B2: 0.3 µg/mL.
Turning to B3, the IC50, in vitro virus neutralization on MDCK cells was > 15 µg/mL.
On the same count and under the same terms, next, B4: 14 µg/mL.

In another test the target is HA of high pathogenic H7N7 (A/Ch/Neth/621557/03), on infected MDCK cells or on virus (Influenza A virus H7N7 A/Ch/Neth/621557/03 (host Chicken)). Put plainly: cell-based or functional assay.
Take B1: the IC50, in vitro virus neutralization on MDCK cells stood at 0.2 µg/mL.
As to B2, the IC50, in vitro virus neutralization on MDCK cells turned out to be 0.1 µg/mL.
Turning to B3, the IC50, in vitro virus neutralization on MDCK cells is > 15 µg/mL.
The same measure, in the same setting: next, B4: 0.4 µg/mL.

The target in a further test is HA of low pathogenic H7N1 (A/Ch/Italy/1067/1999), on infected MDCK cells or on virus (Influenza A virus H7N1 A/Ch/Italy/1067/1999 (host Chicken)). Kind of test: cell-based or functional assay.
B1: the IC50, in vitro virus neutralization on MDCK cells was 0.6 µg/mL.
On the same count and under the same terms, with B2 the figure was 3.6 µg/mL; with B3, > 15 µg/mL.
For the molecule B4, the IC50, in vitro virus neutralization on MDCK cells is > 15 µg/mL.

The target of a further test is HA of Influenza H1N1 (A/Neth/602/2009), on infected MDCK cells or on virus (Influenza A virus H1N1 A/Neth/602/2009 (host Human)). Kind of test: cell-based or functional assay.
For B1, the IC50, in vitro virus neutralization on MDCK cells was > 15 µg/mL.
Still for that read-out and setting: next, B2: > 15 µg/mL; B3: > 15 µg/mL.
On to B4, for which the IC50, in vitro virus neutralization on MDCK cells was > 15 µg/mL.
